A short description of this data set: protein stability index of a GFP-peptide fusion (GPS, HEK-293T) (PSI 1-6); higher = more stable. The settings on record: c terminus: a fixed tail appended.

± gives the standard deviation.
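Note: 24-mer peptide tiles fused after GFP, lentivirally expressed, FACS-sorted into six equal bins by GFP/DsRed ratio, decoded by Illumina sequencing, PSI is the read-weighted mean bin number.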

On to AAAEVGGGVGGSSRARSASSPRGM [ANKRD17], for which the protein stability index runs as follows: (treatment: DMSO) 4.82 ± 0.34; (treatment: MLN4924 1 uM, 8 h) 5 ± 0.24.

Regarding AAASAKDIYYNNMEEVCGGEKPYL [ATL3], the protein stability index turned out to be 4.21 ± 0.25 (treatment: DMSO) and 4.01 ± 0.069 (treatment: MLN4924 1 uM, 8 h).

As to AAGELESMGFSARYNFTPDPDFKD [NETO1], the protein stability index reads like this: (treatment: DMSO) 4.71 ± 0.2; (treatment: MLN4924 1 uM, 8 h) 4.61 ± 0.18.

Regarding AAHRLARRLYHLEGFQRCDVARQL [PSD2], the protein stability index was 2.21 ± 0.43 (treatment: DMSO) and 2.46 ± 0.46 (treatment: MLN4924 1 uM, 8 h).

AANKAVKCAEVIIPLLSSVNVSDR [ANKRD44]: the protein stability index by setting is: (treatment: DMSO) 2.9 ± 0.27; (treatment: MLN4924 1 uM, 8 h) 2.98 ± 0.23.

For the sequence AANKGEEKKDDENIPMETEETHLE [SMARCE1], the protein stability index (treatment: DMSO) came to 5.64 ± 0.33 and the protein stability index (treatment: MLN4924 1 uM, 8 h) turned out to be 5.34 ± 0.42.

With AAPGALGSLHAGGARLVAACSAWL [AUH], the protein stability index is, setting by setting: (treatment: DMSO) 2.65 ± 0.047; (treatment: MLN4924 1 uM, 8 h) 2.39 ± 0.34.

For AAQNCRKRKLDTILNLERDVEDLQ [NFE2L1], the protein stability index (treatment: DMSO) was found to be 4.09 ± 0.44 and the protein stability index (treatment: MLN4924 1 uM, 8 h) turned out to be 4.62 ± 0.27.

On to AASPELSALEEAFRRFAVHGDARA [TPPP], for which the protein stability index runs as follows: (treatment: DMSO) 3.73 ± 0.12; (treatment: MLN4924 1 uM, 8 h) 3.74 ± 0.26.

Regarding AASVRMRGEAEAFAIGARARAEAE [FLOT1], the protein stability index reads like this: (treatment: DMSO) 5.32 ± 0.17; (treatment: MLN4924 1 uM, 8 h) 4.96 ± 0.23.

For the sequence ACGGHVELAALLIERGASLEEVND [ANKRD17], the protein stability index came out at 3.91 ± 0.29 (treatment: DMSO) and 3.73 ± 0.22 (treatment: MLN4924 1 uM, 8 h).

On to ADPLRVSSRDKLTEMAASSQGNFE [FUNDC2], for which the protein stability index was determined as 4.96 ± 0.2 (treatment: DMSO) and 5.18 ± 0.26 (treatment: MLN4924 1 uM, 8 h).

As for ADSVITVGRGEVVTVRVPTHEEGS [ACBD3], the protein stability index runs as follows: (treatment: DMSO) 4.88 ± 0.2; (treatment: MLN4924 1 uM, 8 h) 4.88 ± 0.16.

ADTRRLNSKPQDLTDAYGPPSNFL [SNX12]: the protein stability index is 3.97 ± 0.22 (treatment: DMSO) and 3.93 ± 0.068 (treatment: MLN4924 1 uM, 8 h).

Regarding AEHEITELTATFTKFDRDGNRILD [PKD2L1], the protein stability index (treatment: DMSO) stood at 4.76 ± 0.24 and the protein stability index (treatment: MLN4924 1 uM, 8 h) worked out at 4.95 ± 0.19.

Regarding AETQPQNPPAQPAPNAWQVIKGVL [CLPTM1], the protein stability index is, setting by setting: (treatment: DMSO) 3.55 ± 0.15; (treatment: MLN4924 1 uM, 8 h) 3.78 ± 0.25.

As for AEVNAVDNEGNSALHIIVQYNRPI [FEM1B], the protein stability index reads like this: (treatment: DMSO) 2.48 ± 0.25; (treatment: MLN4924 1 uM, 8 h) 2.48 ± 0.23.

AEVRHEIQDGTIHLYIYSIHSIPK [KMT2E]: the protein stability index is, setting by setting: (treatment: DMSO) 2.1 ± 0.76; (treatment: MLN4924 1 uM, 8 h) 1.51 ± 0.14.

AFERQQVENRVVEEAKGLLDKVKD [ZBED1]: the protein stability index reads like this: (treatment: DMSO) 4.97 ± 0.38; (treatment: MLN4924 1 uM, 8 h) 5.61 ± 0.19.

Regarding AFHGAPSHLPTRSPSFPEAPDSGR [TBX6], the protein stability index (treatment: DMSO) is 4.32 ± 0.26 and the protein stability index (treatment: MLN4924 1 uM, 8 h) stood at 4.37 ± 0.38.

As to AGGAGGGVTEEQEGFADGFVKALD [JUNB], the protein stability index runs as follows: (treatment: DMSO) 5.32 ± 0.17; (treatment: MLN4924 1 uM, 8 h) 5.35 ± 0.085.

Sequence AGISPLQQMVASGTGAVVTSLFMT [SLC25A39] displayed a protein stability index (treatment: DMSO) of 2.02 ± 0.57 and a protein stability index (treatment: MLN4924 1 uM, 8 h) of 2.17 ± 0.5.

On to AHLPKAQLSGYAVEATRNQSQLQR [FBF1], for which the protein stability index reads like this: (treatment: DMSO) 4.21 ± 0.044; (treatment: MLN4924 1 uM, 8 h) 4.08 ± 0.2.

As to AHSNAISNCCFTFSGHFLCTSSWD [WDR88], the protein stability index stood at 2.48 ± 0.49 (treatment: DMSO) and 2.3 ± 0.57 (treatment: MLN4924 1 uM, 8 h).

For the sequence AIHYCASTSEESWTDSEVDSSCSG [SPDEF], the protein stability index runs as follows: (treatment: DMSO) 5.28 ± 0.2; (treatment: MLN4924 1 uM, 8 h) 5.18 ± 0.37.

Take AIPIEIKSIDDTSNFDDFPESDIL [STK38L]: the protein stability index (treatment: DMSO) was 4.67 ± 0.17 and the protein stability index (treatment: MLN4924 1 uM, 8 h) came to 4.84 ± 0.11.

Take AKGLAESLELPKAIQDQLPRLQQL [FANCE]: the protein stability index reads like this: (treatment: DMSO) 3.95 ± 0.12; (treatment: MLN4924 1 uM, 8 h) 4.15 ± 0.3.

In turn, AKKEDKVPVKKQKTRTVFSSTQLC [NANOGP8] had a protein stability index (treatment: DMSO) of 4.2 ± 0.1 and a protein stability index (treatment: MLN4924 1 uM, 8 h) of 4.19 ± 0.12.

As to AKKGRRNQSVEPKKEEPEPETEAV [ZMYND11], the protein stability index by setting is: (treatment: DMSO) 5.53 ± 0.28; (treatment: MLN4924 1 uM, 8 h) 5.66 ± 0.21.

For the sequence ALALQARGCSVKIWTAHYDPGHCF [ALG2], the protein stability index runs as follows: (treatment: DMSO) 2.25 ± 0.41; (treatment: MLN4924 1 uM, 8 h) 2.23 ± 0.26.

On to ALCELLEKETQIIASIGRHRYIAY [IQUB], for which the protein stability index is, setting by setting: (treatment: DMSO) 2.25 ± 0.3; (treatment: MLN4924 1 uM, 8 h) 2.16 ± 0.24.

Turning to ALEGSALANGRALSAGSPPVPPGW [DLX1], the protein stability index reads like this: (treatment: DMSO) 3.59 ± 0.15; (treatment: MLN4924 1 uM, 8 h) 3.86 ± 0.17.

Sequence ALLDQIRQGIQLNKTPGAPESSAL [WAS] had a protein stability index (treatment: DMSO) of 3.3 ± 0.16 and a protein stability index (treatment: MLN4924 1 uM, 8 h) of 3.15 ± 0.53.

As to ALLIVDSATALYRTDYSGRGELSA [RAD51], the protein stability index was determined as 2.17 ± 0.33 (treatment: DMSO) and 2.27 ± 0.42 (treatment: MLN4924 1 uM, 8 h).

Regarding ALSSPRSRKNATQPPNAEEESGSS [INTS3], the protein stability index was 5.24 ± 0.31 (treatment: DMSO) and 5.38 ± 0.24 (treatment: MLN4924 1 uM, 8 h).

Consider AMELRHQGGEYLPKPEPPQLVLAY [FEM1A], for which the protein stability index reads like this: (treatment: DMSO) 2.32 ± 0.33; (treatment: MLN4924 1 uM, 8 h) 2.38 ± 0.28.

Values taken from the supplement of paper PMC10567573.
